The text below walks through data of paper PMC10686824, “Bacterial cGAS senses a viral RNA to initiate immunity”.

In the data set the target is T1, His6-MBP-Ssc-CdnE03 (UniProt P0DXA6 1-324).
T1 sequence: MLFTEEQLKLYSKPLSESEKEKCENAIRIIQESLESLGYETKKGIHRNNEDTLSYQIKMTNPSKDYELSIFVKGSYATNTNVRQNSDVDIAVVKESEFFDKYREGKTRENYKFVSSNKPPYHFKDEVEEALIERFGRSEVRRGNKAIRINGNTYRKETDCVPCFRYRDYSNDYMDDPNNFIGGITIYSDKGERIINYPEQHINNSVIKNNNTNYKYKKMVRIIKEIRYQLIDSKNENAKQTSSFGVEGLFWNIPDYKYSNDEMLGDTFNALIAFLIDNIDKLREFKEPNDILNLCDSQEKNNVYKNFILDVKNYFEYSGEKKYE
Nature of the data set: pull-down; total RNA of infected cells; EMSA: 50 mM CAPSO pH 9.4, 50 mM KCl, 5 mM Mg acetate, 1 mM DTT, 4 C 25 min, 1 uM RNA, 2% agarose in 1x TB; pull-down on cobalt resin, buffer not given in material. Conditions: protein: recombinant, tags: His6-MBP.

B1: 200-nt RNA from 80alpha-vir(cabRNA57) (structured_RNA)
RNA: AGAGGAGAACCUCAAGAGGCUUACAGUAAGAAAUAUGACCAUUUAAACGAUGAAGUGGAAAAAGAGGUUACUUACACAAUCACACCAACUUUUGAAGAGCGUCAGAGAUCUAUUGACCACAUACUAAAAGUUCAUGGUGCGUAUAUCGACAAAAAAGAAAUUACUCAGAAGAAUAUUGAGAUUAAUAUUGGUGAGUACGA
On to B1, for which the binding result is listed as “binds”.

In the case of GAAUGUUAUGGCAAUGCUACUAAGUCAGCUGUGC (structured_RNA) [cabRNA PhiJ1/2 (34 nt)], the binding result (hairpin (predicted)) was “binds”.

B2: 80-nt RNA from 80alpha-vir(cabRNA100) (structured_RNA)
RNA: AUGGUGCGUAUAUCGACAAAAAAGAAAUUACUCAGAAGAAUAUUGAGAUUAAUAUUGGUGAGUACGAUGACGAAAGUUAA
Take B2: the binding result is “binds”. In the case of UUCCGGAAGAUGAUUAGUCAUGUAUGAAAUACUUGAUCUAAAAAAUAAA (structured_RNA) [cabRNA PhiJ4 (49 nt)], the binding result (hairpin (predicted)) is listed as “binds”.
